The source of these data is article PMC5384453, “A multi-functional PEGylated gold(III) compound: potent anti-cancer properties and self-assembly into nanostructures for drug co-delivery” (Chemical Science, 2016).

In one data set the test system is CHEM-5. Nature of the data set: In vitro cytotoxicity, MTT assay. Particulars: CHEM-5, MTT assay, 72 h. Type of data set: cell-based, human. As to the method: (§1) page 7: The gold content of the nanocomposites was determined by dissolving the nanocomposites in conc. HNO3 / conc. HCl solution mixture (9:1, v/v; 30 µL), followed by ICP-MS analysis. […] The nanocomposite (10 µL) was dissolved in acetonitrile (90 µL), and subjected to gentle shaking overnight. The solution mixture was then dried under vacuum, and re- dispersed in 0.1 vol% formic acid in water/acetonitrile (7/3, v/v; 1 mL) solution mixture. […] The mobile phase was 0.1 vol% formic acid in water/acetonitrile (7:3, v/v) solution mixture. […] The cells were then treated with a serial concentration of gold(III) complexes and incubated at 37 °C under a 5% CO2 atmosphere for 72 h. […] After incubation for 72 h, MTT in PBS solution (5 mg/mL, 10 μL) was added to each well. The plates were incubated at 37 °C under a 5% CO2 atmosphere for another 4 h, and the cells were lysed by the addition of SDS solution (10%, w/w) with 0.01 M HCl (100 μL). After incubation in dark at 37 °C overnight, the cell viability after treatment was determined by a microtitre plate reader monitoring at the absorbance at 590 nm, P.7 page 8: which reflected the amount of blue formazan formed. IC50 values were then determined by CompuSyn S6 from three independent measurements. Study on the release of hydrolyzed product from 1 and 2 in aqueous buffer solutions by ICP-MS. […] At a predetermined time, an aliquot of solution was removed and dissolved in HNO3/HCl solution mixture (9:1, v/v; volume of aliquot: volume of acid mixture = 1:3). The solution mixture was heated at 65 °C with shaking overnight, and the gold content was determined by ICP-MS from three independent aliquots. […] 37 °C for 24 h. […] Analysis of cell lysate of HCT116 cells treated with complexes 1 and 3 by UPLC- QTOF-MS. […] All the cells were harvested, washed with PBS solution for three times and dispersed in ice-cold water. The cell suspension was then added to ice-cold acetonitrile (1:3, v/v), vortexed for 5 min, and centrifuged at 10,000 rpm at 4 °C. The supernatant was collected, dried under vacuum and the solid was re-dissolved in acetonitrile (HPLC grade) for UPLC- QTOF-MS experiments. The mobile phase was a mixture of 0.1% formic acid in water (phase A) and 0.1% formic acid in acetonitrile (phase B). […] P.46
In general terms: Tetrazolium dyes change colour on reduction, which living cells bring about.

For a further data set, the system named is L02. Nature of the data set: In vitro cytotoxicity, MTT assay. Type of data set: cell-based, human. Conditions: 72 h. As to the method: as §1
The nature of data set [1]: Release of hydrolyzed gold(III) porphyrin moiety in aqueous buffer solutions (dialysis, ICP-MS). Type of data set: physicochemical. Particulars: for hydrolyzed product found: sodium acetate buffer pH 4, 37 °C. The procedure: The rate of the release of the gold(III) porphyrin moiety from the conjugates in aqueous buffer solutions at different pH values was determined according to the reported methodology.[24],[26],[27] Nanostructures of 1 and 2 were dissolved in PBS or sodium acetate buffer (pH 4.0) and then dialyzed against a large volume of PBS or sodium acetate buffer solution in the dark at 37 °C using a 1000 Da cut-off dialysis membrane (details are included in the ESI ^†). The quantity of the hydrolyzed gold(III) porphyrin moiety at different time points was determined by inductively coupled plasma mass spectrometry (ICP-MS; Fig. 2a). In PBS, 31% and 60% of 1 were hydrolyzed at 6 and 24 h, respectively, while only 2% and 3% of hydrolyzed product of 2 were found at 5 and 24 h, and more than 89% of 2 remained unhydrolyzed at 96 h. […] Faster release was also found upon incubation of 2 in pH 4 buffer solution compared to that in PBS, but the amount was still much smaller than that found in the study of 1. As the only difference between 1 and 2 is the chemical structure of the linkage for PEG conjugation, the faster release of the gold(III) porphyrin moiety from 1 in PBS than that from 2 should be attributed to the higher tendency of the ester bond in 1 to undergo hydrolytic cleavage than the amide bond in 2.[52] […]
Study on the release of hydrolyzed product from 1 and 2 in aqueous buffer solutions by ICP-MS. The nanostructures of gold(III) complex was dissolved in PBS solution (pH 7.4; 1 mg/mL) or sodium acetate buffer solution (pH 4.0; 1 mg/mL) and was dialyzed against 1 L of the buffer solution at 37 °C using semipermeable minidialysis tubes (molecular weight cut-off = 1,000 Da; GE Healthcare). At a predetermined time, an aliquot of solution was removed and dissolved in HNO3/HCl solution mixture (9:1, v/v; volume of aliquot: volume of acid mixture = 1:3). The solution mixture was heated at 65 °C with shaking overnight, and the gold content was determined by ICP-MS from three independent aliquots. […]

“[Au(TPP–COO–PEG5000–OCH3)]Cl [Compound 1]”: the IC50 came out at 11.3 ± 0.05 µM in the data set with CHEM-5 and 3.8 ± 0.1 µM in the data set with L02. In addition, the “hydrolyzed (release of gold(III) porphyrin moiety)” value came to 31% in data set [1] (PBS, 37 °C, 6 h) and 60% in data set [1] (PBS, 37 °C, 24 h). The hydrolyzed product found in data set [1] (6 h) is reported as 60%; in data set [1] (24 h) it was 96%.
Consider “[Au(TPP–CONH–PEG5000–OCH3)]Cl [Compound 2]”, for which the “hydrolyzed (release of gold(III) porphyrin moiety)” value is listed as 2% in data set [1] (PBS, 37 °C, 5 h) and 3% in data set [1] (PBS, 37 °C, 24 h). Besides, the remained unhydrolyzed result in data set [1] (PBS, 37 °C, 96 h) is given as “more than 89%”.
Take `COC(=O)c1ccc(C2=C3C=CC(=N3)C(c3ccccc3)=c3ccc4[n]3[Au+][n]3c(ccc32)C(c2ccccc2)=C2C=CC(=N2)C=4c2ccccc2)cc1.[Cl-]` [Compound 3, [Au(TPP–COOCH3)]^+]: the IC50 came to 3.5 ± 0.03 µM with CHEM-5 and 0.2 ± 0.05 µM in the data set with L02.

One may read the IC50 as the midpoint of a concentration-inhibition curve. The low end stands for inhibition by little substance, the high end for a need for much substance.
